The test system of data set [1] is Botrytis cinerea conidia. Nature of the data set: In vitro liquid-based assay (fungal biomass, 96-well plates, Cytation 5). The note with it: co-incubated with conidia for three days, vs untreated control. The class given is cell-based. A digest of the protocol: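 Conidia (5000/mL stock) were co-incubated with dsRNA or control treatments in pH 6.0 minimal medium. Incubation ran 72 h at 23 °C, shaking at 120 rpm under continuous light. Fungal biomass was measured by brightfield imaging (8 slices per well, 2.5× lens) and expressed as average reduction versus control.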

In data set [2] the test system is Botrytis cinerea B05.10 isolate. Nature of the data set: Greenhouse whole plant assay (tomato 'Lanai', disease severity). The class given is in vivo. Particulars: final rating day (rating #3).
Where [3] appears, read: 8 g ai/ha, three runs, four-week-old 'Lanai' tomato plant.
[4] abbreviates: 25 g ai/ha, three runs, four-week-old 'Lanai' tomato plant.
Setting [5] is: 8 g ai/ha, two runs, three-week-old 'Lanai' tomato plant.
Setting [6] is: 25 g ai/ha, two runs, three-week-old 'Lanai' tomato plant.

B1: GS2280: dsRNA trigger targeting B. cinerea Bcmcm4 (XM_024696090.1); trigger SEQ ID NO 21, RNA 33, reverse complement 45 (nucleic acid, listed as Botrytis cinerea)
sense: AAUGUCCUCGUCCGGUUUGUAAAUCUCCAAACUCCAUGCAGAUUGUACACAACAGGUCUGGAUUCAUGGAUAAGCAAGUUAUCAAGCUUCAAGAAACUCCAGAUUCCGUUCCUGCUGGUCAAACACCACAUUCCGUCUCGAUGUGUGCAUAUGAUGAGUUGGUGGAUCUGUGCAAAGCUGGUGACAGAGUUGAGAUUACUGGUAUCUUCAAAGCUAGUCCAGUUCGUGUCAAUCCUCGCCAAAGAACUCUCAAAAGCAUUUAUAAAACGUACAUCGACGUUUUACACAUUCAAAAGGUUGACAAGAAAAGAAUGGGAAUUGAUGCUUCGACCGUUGAGCAAGAAAUAUCCGAUCAGUUGACAGGCAACAUUGAAGAAACUAGAAAGGUUUCUGAAGAGGAGGAAGAAAAAAUCAGAGAAACCGCUGCAAGACCCGAUAUCUACGAACUUCUAUCUCGAUCCCUCGCACCUAGUAUUUUUGAGAUGGACGAUGUUAAGAAGGGUAUCUUGCUUCAAUUAUUUGGUGGAACUAACAAGUCUUUCGAAAAAGGAGGAAGUCCAAAAUACAGAGGAGAUAUCAAUAUUCUAUUGU
antisense: ACAAUAGAAUAUUGAUAUCUCCUCUGUAUUUUGGACUUCCUCCUUUUUCGAAAGACUUGUUAGUUCCACCAAAUAAUUGAAGCAAGAUACCCUUCUUAACAUCGUCCAUCUCAAAAAUACUAGGUGCGAGGGAUCGAGAUAGAAGUUCGUAGAUAUCGGGUCUUGCAGCGGUUUCUCUGAUUUUUUCUUCCUCCUCUUCAGAAACCUUUCUAGUUUCUUCAAUGUUGCCUGUCAACUGAUCGGAUAUUUCUUGCUCAACGGUCGAAGCAUCAAUUCCCAUUCUUUUCUUGUCAACCUUUUGAAUGUGUAAAACGUCGAUGUACGUUUUAUAAAUGCUUUUGAGAGUUCUUUGGCGAGGAUUGACACGAACUGGACUAGCUUUGAAGAUACCAGUAAUCUCAACUCUGUCACCAGCUUUGCACAGAUCCACCAACUCAUCAUAUGCACACAUCGAGACGGAAUGUGGUGUUUGACCAGCAGGAACGGAAUCUGGAGUUUCUUGAAGCUUGAUAACUUGCUUAUCCAUGAAUCCAGACCUGUUGUGUACAAUCUGCAUGGAGUUUGGAGAUUUACAAACCGGACGAGGACAUU
In the case of B1, the results for the “Average % Reduction in Biomass” value in data set [1] (25 ppm dsRNA) and in data set [1] (150 ppm dsRNA) were 16% and 33%, respectively. The “% control” value was determined as 0% in data set [2] (setting [3]) and 36% in data set [2] (setting [4]).

B2: GS349: dsRNA trigger targeting B. cinerea CDC42 (XM_001545642.2); trigger SEQ ID NO 14, RNA 26, reverse complement 38 (nucleic acid, listed as Botrytis cinerea)
sense: GUUGUCUUGUCUCGCUCAAGCUUGUCCUGUCUGGUCACUUUUCUUUCUGCCUGAUAAUCCAGACCUCGAAAAUAACCAAAAGAUUGGAAAUCGUUUGCUCAUCUUGCAUGCAUUAUUACUUUCCUGGAUCAAUCUCAUUCAACUCGUUCUCGUGCAUUUCAUUCAACCUCAACCCCUACUUUCAGUCAAUUCAAUUUAAUUCAAUCAUUCAAAUCUUUCAUUUCGCACACUUCACAUUCAACCAUCCUCUCUCAAUCAAAUAUCACCACCUCUCUUAUCGAACGUCAUUUUGCAUACAAUCAAUUCCUACAGACCGAGCGCAACUCGAUACAACCAUCGAAUAACUUCUCACACUUGCUUGUUGAAUUGAUUACUGAAGAAAGUGGAUUUCAAAGACCGAUUUUCCCCCUAGAUAUUCAAGAACGGCUUAUUCUUGUCUCGAGACAAAAC
antisense: GUUUUGUCUCGAGACAAGAAUAAGCCGUUCUUGAAUAUCUAGGGGGAAAAUCGGUCUUUGAAAUCCACUUUCUUCAGUAAUCAAUUCAACAAGCAAGUGUGAGAAGUUAUUCGAUGGUUGUAUCGAGUUGCGCUCGGUCUGUAGGAAUUGAUUGUAUGCAAAAUGACGUUCGAUAAGAGAGGUGGUGAUAUUUGAUUGAGAGAGGAUGGUUGAAUGUGAAGUGUGCGAAAUGAAAGAUUUGAAUGAUUGAAUUAAAUUGAAUUGACUGAAAGUAGGGGUUGAGGUUGAAUGAAAUGCACGAGAACGAGUUGAAUGAGAUUGAUCCAGGAAAGUAAUAAUGCAUGCAAGAUGAGCAAACGAUUUCCAAUCUUUUGGUUAUUUUCGAGGUCUGGAUUAUCAGGCAGAAAGAAAAGUGACCAGACAGGACAAGCUUGAGCGAGACAAGACAAC
Regarding B2, the “Average % Reduction in Biomass” value in data set [1] (25 ppm dsRNA) is 8%; in data set [1] (150 ppm dsRNA), 25%. Further, the “% control” value in data set [2] (setting [5]) is 46%; in data set [2] (setting [6]), 59%.

B3: GS2303: dsRNA trigger targeting B. cinerea Bcded1 (XM_001550339.2); trigger SEQ ID NO 24, RNA 36, reverse complement 48 (nucleic acid, listed as Botrytis cinerea)
sense: GGGCUAUAUAAGCUUUCAUCUAGGUUUUCCAAGAAACGCAUUACGAUAGACAUGUUCUCCAAAAAUCUUACUGGUCCUGCUUUCAGCAUUUCCAUGGAUCAUGAAGUCCUCCACUAUGGAAGAUUUGCAAAAUAUUUUCGACAUUGCAUUUUGCUGCAUUUCGCAUUUCUAGAUAGAAAAAAAGUGGGAUUCAUAUUCUCGAUAUUUUCUUCGUUGUCUUUUAUUCACAAGACACAUGGCAAGGGAGGAUACCAUUUGAGAGCUUGAAUUGAAGGCUUUCCUCUUACUUUUUUUAUUUUUCACAUCAUCUACGAGUGGGCGUCUUUUACGAUCAAAUCGAUAUACGACAGUGGCACAAAAUAGAAUAGGCAUUUCUCUUCUUAAAAAAGAUUUAAGGGAAGAGUUGGUGCUUGUUCUCUAUAACGCUGAUGGCAUUCGGAAGUGCUCCUGUCCAUUCAGGCUGAGACUGAGACCCAAAAUGUUGGCAGGUACGGCAGAAAGAAGUCUGCUUCAUAUGAUUGAUGGAGGAAGAAAGAAAUAUGGAAUGCGAUGGAUGAGUAAUUACUUUAAAUGAAUAUGAAAA
antisense: UUUUCAUAUUCAUUUAAAGUAAUUACUCAUCCAUCGCAUUCCAUAUUUCUUUCUUCCUCCAUCAAUCAUAUGAAGCAGACUUCUUUCUGCCGUACCUGCCAACAUUUUGGGUCUCAGUCUCAGCCUGAAUGGACAGGAGCACUUCCGAAUGCCAUCAGCGUUAUAGAGAACAAGCACCAACUCUUCCCUUAAAUCUUUUUUAAGAAGAGAAAUGCCUAUUCUAUUUUGUGCCACUGUCGUAUAUCGAUUUGAUCGUAAAAGACGCCCACUCGUAGAUGAUGUGAAAAAUAAAAAAAGUAAGAGGAAAGCCUUCAAUUCAAGCUCUCAAAUGGUAUCCUCCCUUGCCAUGUGUCUUGUGAAUAAAAGACAACGAAGAAAAUAUCGAGAAUAUGAAUCCCACUUUUUUUCUAUCUAGAAAUGCGAAAUGCAGCAAAAUGCAAUGUCGAAAAUAUUUUGCAAAUCUUCCAUAGUGGAGGACUUCAUGAUCCAUGGAAAUGCUGAAAGCAGGACCAGUAAGAUUUUUGGAGAACAUGUCUAUCGUAAUGCGUUUCUUGGAAAACCUAGAUGAAAGCUUAUAUAGCCC
B3: the entries for the “Average % Reduction in Biomass” value in data set [1] (25 ppm dsRNA) and in data set [1] (150 ppm dsRNA) were 13% and 26%, respectively. Further, the “% control” value stood at 0% in data set [2] (setting [3]) and 34% in data set [2] (setting [4]).

B4: GS730: dsRNA trigger targeting B. cinerea Bcsec15 (XM_024692064.1); trigger SEQ ID NO 19, RNA 31, reverse complement 43 (nucleic acid, listed as Botrytis cinerea)
sense: UCAACGCAGUCUCCAAAGCUUUGGAUGAAUUCGAUAACCCGGAUGUUAUUCUGCAAACCAAGAAUGUGAUAGCAUUGUUCAUCCAAACAAUGGAGGGUUGGGGAUAUUCAGUUGCCAUAUUAGAUGCUUAUGUGCUUAAGCUUUUCUAUAGAUAUGCUGAUUUGUUAAAACGGAAAUUCAGCACAGAUUUUCAACAGAUUGUGUCUACCGAUGAAUACAUGCCUAUGCCUGUCAAUAGCGAAGAAGACUUUGAUAAAAUCAUUCAAGUCAGUUGGUAUGUUCCGGACAGACCGAAAGAAGAAUACACAUUCCCCGGUGUAUUACCAUUCUCCCAGAUGUACCCAAUGUGCUGUAUAGAUAUCAGAAAUUUCCUGAAUCGAUUCUACUUCAUAAUGGAUGAUCAUUUUCAACAGCCAAACAUUAUUGAUGAGACACUUAAGAAGUCGAUAGAUGAGCUUCUGUCUGAGGAUAUUUGUGA
antisense: UCACAAAUAUCCUCAGACAGAAGCUCAUCUAUCGACUUCUUAAGUGUCUCAUCAAUAAUGUUUGGCUGUUGAAAAUGAUCAUCCAUUAUGAAGUAGAAUCGAUUCAGGAAAUUUCUGAUAUCUAUACAGCACAUUGGGUACAUCUGGGAGAAUGGUAAUACACCGGGGAAUGUGUAUUCUUCUUUCGGUCUGUCCGGAACAUACCAACUGACUUGAAUGAUUUUAUCAAAGUCUUCUUCGCUAUUGACAGGCAUAGGCAUGUAUUCAUCGGUAGACACAAUCUGUUGAAAAUCUGUGCUGAAUUUCCGUUUUAACAAAUCAGCAUAUCUAUAGAAAAGCUUAAGCACAUAAGCAUCUAAUAUGGCAACUGAAUAUCCCCAACCCUCCAUUGUUUGGAUGAACAAUGCUAUCACAUUCUUGGUUUGCAGAAUAACAUCCGGGUUAUCGAAUUCAUCCAAAGCUUUGGAGACUGCGUUGA
For B4, the “Average % Reduction in Biomass” value in data set [1] (25 ppm dsRNA) is on record as 21%; in data set [1] (150 ppm dsRNA), 45%. In addition, the “% control” value in data set [2] (setting [5]) worked out at 61%; in data set [2] (setting [6]) it was 58%.

The record behind these values is patent US20230189818A1, “RNA-BASED CONTROL OF BOTRYTIS” (priority 2021, published 2023).
